Residue numbers refer to the chain shown, from its start. Numbers in names are those of the source.
B1: C5A (XPA23) VH N104H (antibody, V domains shown)
VH: EVQLLESGGGLVQPGGSLRLSCAASGFTFSKYFMFWVRQAPGKGLEWVSVISPSGGMTRYADSVKGRFTISRDNSKNTLYLQMNSLRAEDTAVYYCARVGYGGHSDYWGQGTLVTVSS
VL: DIQMTQSPSSVSASVGDRLTIICRASQDINRWLAWYQQTPGNAPKLLIHSATSLQSGVPSRFSGSGSGTDFTLTINSLQPEDFATYYCQQADSFPLTFGGGTKVEIK
B2: C5A (XPA23) VH N104S (antibody, V domains shown)
VH: B1 VH with H104S
VL: B1 VL
B3: C5A (XPA23) VH N104T (antibody, V domains shown)
VH: B1 VH with H104T
VL: B1 VL
B4: C5A (XPA23) VH N104Q (antibody, V domains shown)
VH: B1 VH with H104Q
VL: B1 VL
B5: C5A (XPA23) VH S105E (antibody, V domains shown)
VH: B1 VH with H104N, S105E
VL: B1 VL
B6: C5A (XPA23) VH S105H (antibody, V domains shown)
VH: B1 VH with H104N, S105H
VL: B1 VL
B7: C5A (XPA23) VH S105T (antibody, V domains shown)
VH: B1 VH with H104N, S105T
VL: B1 VL
B8: C5A (XPA23) VH S105N (antibody, V domains shown)
VH: B1 VH with H104N, S105N
VL: B1 VL
B9: C5A (XPA23) VH S105Q (antibody, V domains shown)
VH: B1 VH with H104N, S105Q
VL: B1 VL
B10: C5A (XPA23) VH D106E (antibody, V domains shown)
VH: B1 VH with H104N, D106E
VL: B1 VL
B11: C5A (XPA23) VH D106K (antibody, V domains shown)
VH: B1 VH with H104N, D106K
VL: B1 VL
B12: C5A (XPA23) VH D106H (antibody, V domains shown)
VH: B1 VH with H104N, D106H
VL: B1 VL
B13: C5A (XPA23) VH D106R (antibody, V domains shown)
VH: B1 VH with H104N, D106R
VL: B1 VL
B14: C5A (XPA23) VH D106S (antibody, V domains shown)
VH: B1 VH with H104N, D106S
VL: B1 VL
B15: C5A (XPA23) VH D106N (antibody, V domains shown)
VH: B1 VH with H104N, D106N
VL: B1 VL
B16: C5A (XPA23) VH D106Q (antibody, V domains shown)
VH: B1 VH with H104N, D106Q
VL: B1 VL
B17: C5A (XPA23) VH Y107D (antibody, V domains shown)
VH: B1 VH with H104N, Y107D
VL: B1 VL
B18: C5A (XPA23) VH Y107E (antibody, V domains shown)
VH: B1 VH with H104N, Y107E
VL: B1 VL
B19: C5A (XPA23) VH Y107K (antibody, V domains shown)
VH: B1 VH with H104N, Y107K
VL: B1 VL
B20: C5A (XPA23) VH Y107R (antibody, V domains shown)
VH: B1 VH with H104N, Y107R
VL: B1 VL
B21: C5A (XPA23) VH Y107S (antibody, V domains shown)
VH: B1 VH with H104N, Y107S
VL: B1 VL
B22: C5A (XPA23) VH Y107T (antibody, V domains shown)
VH: B1 VH with H104N, Y107T
VL: B1 VL
B23: C5A (XPA23) VH Y107Q (antibody, V domains shown)
VH: B1 VH with H104N, Y107Q
VL: B1 VL
B24: C5A (XPA23) VH F35G (antibody, V domains shown)
VH: B1 VH with F35G, H104N
VL: B1 VL
B25: C5A (XPA23) VH F35A (antibody, V domains shown)
VH: B1 VH with F35A, H104N
VL: B1 VL
B26: C5A (XPA23) VH F35V (antibody, V domains shown)
VH: B1 VH with F35V, H104N
VL: B1 VL
B27: C5A (XPA23) VH F35I (antibody, V domains shown)
VH: B1 VH with F35I, H104N
VL: B1 VL
B28: C5A (XPA23) VH F35L (antibody, V domains shown)
VH: B1 VH with F35L, H104N
VL: B1 VL
B29: C5A (XPA23) VH F35P (antibody, V domains shown)
VH: B1 VH with F35P, H104N
VL: B1 VL
B30: C5A (XPA23) VH V50G (antibody, V domains shown)
VH: B1 VH with V50G, H104N
VL: B1 VL
B31: C5A (XPA23) VH V50A (antibody, V domains shown)
VH: B1 VH with V50A, H104N
VL: B1 VL
B32: C5A (XPA23) VH V50I (antibody, V domains shown)
VH: B1 VH with V50I, H104N
VL: B1 VL
B33: C5A (XPA23) VH V50L (antibody, V domains shown)
VH: B1 VH with V50L, H104N
VL: B1 VL
B34: C5A (XPA23) VH I51G (antibody, V domains shown)
VH: B1 VH with I51G, H104N
VL: B1 VL
B35: C5A (XPA23) VH I51A (antibody, V domains shown)
VH: B1 VH with I51A, H104N
VL: B1 VL
B36: C5A (XPA23) VH I51V (antibody, V domains shown)
VH: B1 VH with I51V, H104N
VL: B1 VL
B37: C5A (XPA23) VH I51L (antibody, V domains shown)
VH: B1 VH with I51L, H104N
VL: B1 VL
B38: C5A (XPA23) VH I51F (antibody, V domains shown)
VH: B1 VH with I51F, H104N
VL: B1 VL
B39: C5A (XPA23) VH S52G (antibody, V domains shown)
VH: B1 VH with S52G, H104N
VL: B1 VL

Each binder was assayed against binding partner of C5A (XPA23) (assay: Biacore).

Q: How did the fold affinity vs original turn out when B1 was run?
A: 0.07 fold

Q: For B2, which fold affinity vs original is on record?
A: 1.02 fold

Q: For B3, which fold difference in affinity vs original is on record?
A: 0.95 fold

Q: For B4, which fold affinity vs original is on record?
A: 0.03 fold

Q: How did the fold affinity vs original turn out when B5 was run?
A: 1.17 fold

Q: How did the fold affinity vs original turn out when B6 was run?
A: 0.05 fold

Q: B7 was tested. Which fold difference in affinity vs original did it give?
A: 0.11 fold

Q: How did the fold affinity vs original turn out when B8 was run?
A: 0.85 fold

Q: How did the fold affinity vs original turn out when B9 was run?
A: 0.98 fold

Q: With B10 as the binder, how does the fold affinity vs original read?
A: 0.04 fold

Q: Which fold affinity vs original does the source give for B11 here?
A: 0.04 fold

Q: For B12, which fold affinity vs original is on record?
A: 0.02 fold

Q: How did the fold affinity vs original turn out when B13 was run?
A: 0.06 fold

Q: How did the fold affinity vs original turn out when B14 was run?
A: 0.03 fold

Q: With B15 as the binder, how does the fold affinity vs original read?
A: 0.07 fold

Q: How did the fold affinity vs original turn out when B16 was run?
A: 0.02 fold

Q: How did the fold affinity vs original turn out when B17 was run?
A: 0.85 fold

Q: For B18, which fold affinity vs original is on record?
A: 0.9 fold

Q: B19 was tested. Which fold affinity vs original did it give?
A: 0.82 fold

Q: How did the fold affinity vs original turn out when B20 was run?
A: 0.85 fold

Q: Which fold affinity vs original does the source give for B21 here?
A: 0.89 fold

Q: Which fold difference in affinity vs original does the source give for B22 here?
A: 0.83 fold

Q: B23 was tested. Which fold affinity vs original did it give?
A: 0.87 fold

Q: With B24 as the binder, how does the fold difference in affinity vs original read?
A: 0.04 fold

Q: Which fold difference in affinity vs original does the source give for B25 here?
A: 0.07 fold

Q: How did the fold difference in affinity vs original turn out when B26 was run?
A: 0.89 fold

Q: B27 was tested. Which fold difference in affinity vs original did it give?
A: 0.85 fold

Q: With B28 as the binder, how does the fold difference in affinity vs original read?
A: 0.78 fold

Q: With B29 as the binder, how does the fold difference in affinity vs original read?
A: 0.06 fold

Q: B30 was tested. Which fold difference in affinity vs original did it give?
A: 0.03 fold

Q: Which fold difference in affinity vs original does the source give for B31 here?
A: 0.09 fold

Q: How did the fold difference in affinity vs original turn out when B32 was run?
A: 0.1 fold

Q: B33 was tested. Which fold difference in affinity vs original did it give?
A: 0.09 fold

Q: How did the fold difference in affinity vs original turn out when B34 was run?
A: 0.94 fold

Q: Which fold difference in affinity vs original does the source give for B35 here?
A: 1.04 fold

Q: B36 was tested. Which fold difference in affinity vs original did it give?
A: 0.99 fold

Q: How did the fold difference in affinity vs original turn out when B37 was run?
A: 0.79 fold

Q: For B38, which fold affinity vs original is on record?
A: 0.9 fold

Q: B39 was tested. Which fold difference in affinity vs original did it give?
A: 0.03 fold

These binders were tested against binding partner of C5A (XPA23) (assay: Biacore, K-off).

Q: Which fold difference in affinity vs original does the source give for B1 here?
A: 0.07 fold

Q: B2 was tested. Which fold difference in affinity vs original did it give?
A: 1.02 fold

Q: B3 was tested. Which fold difference in affinity vs original did it give?
A: 0.95 fold

Q: B4 was tested. Which fold difference in affinity vs original did it give?
A: 0.03 fold

Q: For B5, which fold difference in affinity vs original is on record?
A: 1.17 fold

Q: With B6 as the binder, how does the fold difference in affinity vs original read?
A: 0.05 fold

Q: How did the fold difference in affinity vs original turn out when B7 was run?
A: 0.11 fold

Q: How did the fold difference in affinity vs original turn out when B8 was run?
A: 0.85 fold

Q: For B9, which fold difference in affinity vs original is on record?
A: 0.98 fold

Q: For B10, which fold difference in affinity vs original is on record?
A: 0.04 fold

Q: B11 was tested. Which fold difference in affinity vs original did it give?
A: 0.04 fold

Q: For B12, which fold difference in affinity vs original is on record?
A: 0.02 fold

Q: With B13 as the binder, how does the fold difference in affinity vs original read?
A: 0.06 fold

Q: For B14, which fold difference in affinity vs original is on record?
A: 0.03 fold

Q: How did the fold difference in affinity vs original turn out when B15 was run?
A: 0.07 fold

Q: With B16 as the binder, how does the fold difference in affinity vs original read?
A: 0.02 fold

Q: B17 was tested. Which fold difference in affinity vs original did it give?
A: 0.85 fold

Q: Which fold difference in affinity vs original does the source give for B18 here?
A: 0.9 fold

Q: How did the fold difference in affinity vs original turn out when B19 was run?
A: 0.82 fold

Q: B20 was tested. Which fold difference in affinity vs original did it give?
A: 0.85 fold

Q: How did the fold difference in affinity vs original turn out when B21 was run?
A: 0.89 fold

Q: B22 was tested. Which fold difference in affinity vs original did it give?
A: 0.83 fold

Q: How did the fold difference in affinity vs original turn out when B23 was run?
A: 0.87 fold

The binders below were run against binding partner (antigen) of C5A (XPA23) (assay: Biacore, K-off, fold vs original).

Q: How did the fold difference in affinity vs original turn out when B24 was run?
A: 0.04 fold

Q: With B25 as the binder, how does the fold difference in affinity vs original read?
A: 0.07 fold

Q: Which fold difference in affinity vs original does the source give for B26 here?
A: 0.89 fold

Q: For B27, which fold difference in affinity vs original is on record?
A: 0.85 fold

Q: For B28, which fold difference in affinity vs original is on record?
A: 0.78 fold

Q: B29 was tested. Which fold difference in affinity vs original did it give?
A: 0.06 fold

Q: Which fold difference in affinity vs original does the source give for B30 here?
A: 0.03 fold

Q: How did the fold difference in affinity vs original turn out when B31 was run?
A: 0.09 fold

Q: B32 was tested. Which fold difference in affinity vs original did it give?
A: 0.1 fold

Q: How did the fold difference in affinity vs original turn out when B33 was run?
A: 0.09 fold

Q: How did the fold difference in affinity vs original turn out when B34 was run?
A: 0.94 fold

Q: For B35, which fold difference in affinity vs original is on record?
A: 1.04 fold

Q: With B36 as the binder, how does the fold difference in affinity vs original read?
A: 0.99 fold

Q: B37 was tested. Which fold difference in affinity vs original did it give?
A: 0.79 fold

Q: With B38 as the binder, how does the fold difference in affinity vs original read?
A: 0.9 fold

Q: Which fold difference in affinity vs original does the source give for B39 here?
A: 0.03 fold
